Test results from PMC3786598 (Microscopy and microanalysis : the official journal of …, 2012).

Target: the molecule itself
Test: single-molecule stepwise photobleaching

B1: prestin-eGFP (natural protein, UniProt Q9JKQ2 1-744, looked up)
chain: MDHAEENEIPVATQKYHVERPIFSHPVLQERLHVKDKVSESIGDKLKQAFTCTPKKIRNIIYMFLPITKWLPAYKFKEYVLGDLVSGISTGVLQLPQGLAFAMLAAVPPVFGLYSSFYPVIMYCFFGTSRHISIGPFAVISLMIGGVAVRLVPDDIVIPGGVNATNGTEARDALRVKVAMSVTLLSGIIQFCLGVCRFGFVAIYLTEPLVRGFTTAAAVHVFTSMLKYLFGVKTKRYSGIFSVVYSTVAVLQNVKNLNVCSLGVGLMVFGLLLGGKEFNERFKEKLPAPIPLEFFAVVMGTGISAGFNLHESYSVDVVGTLPLGLLPPANPDTSLFHLVYVDAIAIAIVGFSVTISMAKTLANKHGYQVDGNQELIALGICNSIGSLFQTFSISCSLSRSLVQEGTGGKTQLAGCLASLMILLVILATGFLFESLPQAVLSAIVIVNLKGMFMQFSDLPFFWRTSKIELTIWLTTFVSSLFLGLDYGLITAVIIALLTVIYRTQSPSYKVLGQLPDTDVYIDIDAYEEVKEIPGIKIFQINAPIYYANSDLYSNALKRKTGVNPALIMGARRKAMRKYAKEVGNANIANAAVVKVDGEVDGENATKPEEEDDEVKYPPIVIKTTFPEELQRFMPQTENVHTIILDFTQVNFIDSVGVKTLAVMVKEYGDVGIYVYLAGCSPQVVNDLTRNRFFENPALKELLFHSIHDAVLGSHVREAMAEQEASAPPPQDDMEPNATPTTPEA
- stoichiometry N: 4
